These results are taken from patent publication US20250382376A1 (FUDAN UNIVERSITY, published 2025).

Assay [1] deals with T1, cynomolgus monkey CD73-ECD (cynomolgus monkey, UniProt A0A2K5V5U7 27-549).
T1 construct: also called cynomolgus CD73-ECD
T1 sequence: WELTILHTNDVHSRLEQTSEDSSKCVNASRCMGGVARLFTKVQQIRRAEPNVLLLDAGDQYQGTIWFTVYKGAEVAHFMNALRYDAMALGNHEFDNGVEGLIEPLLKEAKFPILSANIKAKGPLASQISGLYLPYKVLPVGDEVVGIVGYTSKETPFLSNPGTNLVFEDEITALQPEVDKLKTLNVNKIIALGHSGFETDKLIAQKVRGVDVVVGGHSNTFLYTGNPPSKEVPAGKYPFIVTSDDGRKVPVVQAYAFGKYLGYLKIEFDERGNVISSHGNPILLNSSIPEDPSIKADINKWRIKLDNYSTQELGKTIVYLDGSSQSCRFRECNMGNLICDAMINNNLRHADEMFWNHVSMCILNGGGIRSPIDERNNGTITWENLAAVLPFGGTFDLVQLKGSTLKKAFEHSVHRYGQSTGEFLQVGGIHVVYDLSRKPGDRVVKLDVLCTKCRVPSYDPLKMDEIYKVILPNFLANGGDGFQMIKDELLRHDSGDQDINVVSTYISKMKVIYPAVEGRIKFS
Briefly: ELISA, coated cynomolgus CD73-ECD, method of Example 3. As to the method: (§1) The CD73 protein extracellular region (CD73-ECD) was diluted to 1 μg/mL using the coating solution, and an ELISA plate was coated at 100 μL/well at 4° C. overnight. Excess antigens were washed away, and the plate was blocked with 1% BSA at room temperature for 2 hours. Then, 5-fold gradient dilutions of each monoclonal antibody were added at 100 μL/well and incubated at room temperature for 1 hour. Unbound antibodies were washed away, and an appropriate concentration of Staphylococcal protein A labeled with horseradish peroxidase was added at 100 μL/well and incubated at room temperature for 0.5 hours. Unbound secondary antibodies were washed away, and TMB color development solution was added to react for about 15 minutes. 1M HCL was added at 50 µL/well to terminate the color development reaction, and then the absorbance was measured at 450 nm and the data was analyzed.
(§2) The affinity of the humanized antibody to human and cynomolgus CD73-ECD was detected according to the ELISA determination method of Example 3.

Assay [2] has as its target T2, extracellular domain of human CD73 protein, C-terminus polyhistidine-tagged (human, UniProt P21589 27-547).
T2 construct: also the immunogen; also called CD73-ECD; human CD73-ECD
T2 sequence: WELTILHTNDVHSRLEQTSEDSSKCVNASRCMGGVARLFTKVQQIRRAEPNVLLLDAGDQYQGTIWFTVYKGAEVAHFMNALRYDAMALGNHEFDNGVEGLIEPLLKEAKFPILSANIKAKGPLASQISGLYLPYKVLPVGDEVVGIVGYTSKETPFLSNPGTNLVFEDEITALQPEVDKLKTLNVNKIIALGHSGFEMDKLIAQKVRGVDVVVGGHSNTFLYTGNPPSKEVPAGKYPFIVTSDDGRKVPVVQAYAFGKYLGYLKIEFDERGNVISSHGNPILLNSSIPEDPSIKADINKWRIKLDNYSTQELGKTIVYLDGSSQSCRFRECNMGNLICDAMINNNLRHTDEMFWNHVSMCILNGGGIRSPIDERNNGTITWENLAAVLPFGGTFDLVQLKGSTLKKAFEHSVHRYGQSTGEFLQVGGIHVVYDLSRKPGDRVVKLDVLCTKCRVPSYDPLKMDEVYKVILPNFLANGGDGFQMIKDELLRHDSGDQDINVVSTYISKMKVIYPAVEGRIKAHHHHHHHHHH
Briefly: ELISA, coated human CD73-ECD, method of Example 3. As for the experimental part: as §1, §2

Assay [3] deals with T3, CD73 on the surface of human cells (human, UniProt P21589 27-549).
T3 sequence (looked up): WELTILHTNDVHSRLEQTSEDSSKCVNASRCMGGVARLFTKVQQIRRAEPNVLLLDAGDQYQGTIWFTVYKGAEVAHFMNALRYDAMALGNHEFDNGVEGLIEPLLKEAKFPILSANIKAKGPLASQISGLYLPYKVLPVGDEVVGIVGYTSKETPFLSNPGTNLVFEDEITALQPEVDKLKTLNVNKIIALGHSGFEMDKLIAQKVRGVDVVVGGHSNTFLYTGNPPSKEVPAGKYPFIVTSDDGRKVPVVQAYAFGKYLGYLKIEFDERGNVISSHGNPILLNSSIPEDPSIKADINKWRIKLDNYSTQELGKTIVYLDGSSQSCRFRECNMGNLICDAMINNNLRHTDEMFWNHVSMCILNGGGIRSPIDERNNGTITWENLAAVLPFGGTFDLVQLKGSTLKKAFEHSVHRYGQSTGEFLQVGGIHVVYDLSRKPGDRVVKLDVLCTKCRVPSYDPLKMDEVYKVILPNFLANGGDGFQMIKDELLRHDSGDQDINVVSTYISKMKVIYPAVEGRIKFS
In words: cell-based or functional assay.

Assay [4] concerns the target T2, extracellular domain of human CD73 …. In words: ForteBio Octet (the filing calls it SPR), by the method of Example 2 according to the text; sheet prints 'Loading Sample ID: FDYKSD-02-His'; traces labelled 50, 25, 12.5, 6.25, 3.13.
Assay [5] deals with T3, CD73 on the surface of human cells. In words: Flow cytometry on NCI-H1299 cells. As for the experimental part: 100 μL of the test antibodies diluted from 10 μg/mL to 0.016 μg/mL in a 5-fold gradient were used as the primary antibodies, and were mixed with 1×10⁵ tumor cells suspended in 100 μL RPMI-1640 serum-free medium to make a final concentration of 5 μg/mL diluted to 0.008 μg/mL, and then incubated at 4° C. for 1 h. The cells were washed twice with PBS to remove unbound primary antibodies, and then the target cells were incubated with 200 μLPE-labeled secondary antibody at 2 μg/mL at 4° C. for 30 min. The cells were washed twice with PBS to remove unbound secondary antibodies, and finally the cells were resuspended in 200 μL PBS. The binding affinity of the test antibodies to CD73 on the surface of the corresponding cells was measured by flow cytometry.
The binding affinity of the humanized antibodies to NCI-H1299 cells was detected according to the method for determining the binding affinity of CD73 on the surface of tumor cells in Example 5.
A general note: Flow cytometry measures light scatter and fluorescence of single cells or particles in a stream.

Assay [6] has the same target. In words: flow cytometry on NCI-H1299 cells.
Assay [7] deals with T2, extracellular domain of human CD73 …. Briefly: SPR as the filing names it (method of Example 2, ForteBio OCTET R2). As for the experimental part:
Surface plasmon resonance (SPR) assay: Protein A sensor was used to immobilize the antibodies, with an immobilization height of about 1.5 nM. […] Affinity detection: equilibrium for 60 s, binding for 180 s, dissociation for 180 s, at a detection temperature of 25° C. Kinetic characterization analysis was performed using the ForteBio OCTET R2 system.
The affinity of the humanized antibody to the antigen was detected by the surface plasmon resonance (SPR) assay method in Example 2.
(In general: BLI is a label-free optical method that tracks binding on a fibre tip over time.)

For assay [8], the target named is T4, human recombinant CD73 enzyme (CD73 extracellular region) (human, UniProt P21589 27-549).
T4 sequence (looked up): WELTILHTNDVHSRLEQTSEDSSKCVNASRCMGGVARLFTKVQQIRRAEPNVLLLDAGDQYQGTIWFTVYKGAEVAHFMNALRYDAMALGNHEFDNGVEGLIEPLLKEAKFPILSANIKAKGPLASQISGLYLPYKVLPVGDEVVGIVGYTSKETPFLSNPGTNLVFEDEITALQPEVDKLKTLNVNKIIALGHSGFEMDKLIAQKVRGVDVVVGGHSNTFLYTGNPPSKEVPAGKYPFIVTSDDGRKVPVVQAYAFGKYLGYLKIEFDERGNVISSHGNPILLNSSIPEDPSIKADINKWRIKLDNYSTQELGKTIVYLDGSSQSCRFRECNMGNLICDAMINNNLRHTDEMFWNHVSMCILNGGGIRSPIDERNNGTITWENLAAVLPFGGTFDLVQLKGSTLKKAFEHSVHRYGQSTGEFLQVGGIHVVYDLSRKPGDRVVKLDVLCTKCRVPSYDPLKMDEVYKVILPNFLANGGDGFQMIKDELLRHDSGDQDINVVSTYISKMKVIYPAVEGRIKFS
Briefly: cell-based or functional assay.

B1: humanized antibody 3D7-HM9-FCWT (Fc fusion)
VHH: QRQLVESGGGLVQPGGSLRLSCAASGFLLDYYVIGWFRQAPGKEREGVSCISGSDRSTYYADSVKGRFTISRDNAKNTVYLQMSSLRAEDTAVYYCAADPSPVTVQAMCLPRFPVPYWGKGTLVTVSS
notes: 3D7-HM9 VH on an Fc called FCWT; not shown: FCWT Fc segment
Regarding B1, the figures for the EC50 in assay [1] and in assay [2] were 0.00206 µg/mL and 0.00209 µg/mL, respectively. For the same molecule, the “IC50, inhibition of the catalytic function of CD73 enzyme on MDA-MB-231 cells” value in assay [3] came out at 0.126 µg/mL.

B2: humanized antibody 3D7-HM8-FC1 (Fc fusion)
heavy: QRQLVESGGGLVQPGGSLRLSCAASGFLLDYYVIGWFRQAPGKEREGVSCISGSDRSTYYADSVKGRFTISRDNSKNTVYLQMSSLRAEDTAVYYCAADPSPVTVQAMCLPRFPVPYWGQGTLVTVSSEPKSSDKTHTCPPCPAPEFEGGPSVFLFPPKPKDTLMISRTPEVTCVVVDVSHEDPEVKFNWYVDGVEVHNAKTKPREEQYNSTYRVVSVLTVLHQDWLNGKEYKCKVSNKALPASIEKTISKAKGQPREPQVYTLPPSRDELTKNQVSLTCLVKGFYPSDIAVEWESNGQPENNYKTTPPVLDSDGSFFLYSKLTVDKSRWQQGNVFSCSVMHEALHNHYTQKSLSLSPGK
In assay [4], B2 came in with a koff of 0.000913 s⁻¹ and a kon of 779000 M⁻¹ s⁻¹. The “Max MFI” value in assay [5] was 106000 MFI. This molecule also displayed an EC50 in assay [6] of 0.043 µg/mL. For the same molecule, the Kd in assay [7] was determined as 1.17 nM. Further, in assay [8], the “IC50, inhibition of the catalytic function of recombinant human CD73 enzyme” value was 0.0555 µg/mL.

B3: humanized antibody 3D7-HM9-FC1 (Fc fusion)
heavy: QRQLVESGGGLVQPGGSLRLSCAASGFLLDYYVIGWFRQAPGKEREGVSCISGSDRSTYYADSVKGRFTISRDNAKNTVYLQMSSLRAEDTAVYYCAADPSPVTVQAMCLPRFPVPYWGKGTLVTVSSEPKSSDKTHTCPPCPAPEFEGGPSVFLFPPKPKDTLMISRTPEVTCVVVDVSHEDPEVKFNWYVDGVEVHNAKTKPREEQYNSTYRVVSVLTVLHQDWLNGKEYKCKVSNKALPASIEKTISKAKGQPREPQVYTLPPSRDELTKNQVSLTCLVKGFYPSDIAVEWESNGQPENNYKTTPPVLDSDGSFFLYSKLTVDKSRWQQGNVFSCSVMHEALHNHYTQKSLSLSPGK
In assay [4], B3 gave a koff of 0.00086 s⁻¹ and a kon of 1.35e+06 M⁻¹ s⁻¹. Besides, the “Max MFI” value in assay [5] was determined as 105000 MFI. The molecule also registered an EC50 in assay [6] of 0.02 µg/mL. For the same molecule, the EC50 in assay [1] was 0.00188 µg/mL. A half-maximal effect in assay [2] (EC50) was put at 0.0025 µg/mL. For the same molecule, the Kd in assay [7] worked out at 0.638 nM. Moreover, in assay [8], the “IC50, inhibition of the catalytic function of recombinant human CD73 enzyme” value is 0.0187 µg/mL. Besides, in assay [3], the “EC50, reversal of the AMP inhibition of human T lymphocyte proliferation” value amounted to 0.024 µg/mL and the “IC50, inhibition of the catalytic function of CD73 enzyme on MDA-MB-231 cells” value stood at 0.098 µg/mL.

B4: humanized antibody 3D7-HM7-FC1 (Fc fusion)
heavy: QRQLVESGGGLVQPGGSLRLSCAASGFLLDYYVIGWFRQAPGKEREGVSCISGSDRSTYYADSVKGRFTISRDNSKNTVYLQMGSLRAEDTAVYYCAADPSPVTVQAMCLPRFPVPYWGQGTLVTVSSEPKSSDKTHTCPPCPAPEFEGGPSVFLFPPKPKDTLMISRTPEVTCVVVDVSHEDPEVKFNWYVDGVEVHNAKTKPREEQYNSTYRVVSVLTVLHQDWLNGKEYKCKVSNKALPASIEKTISKAKGQPREPQVYTLPPSRDELTKNQVSLTCLVKGFYPSDIAVEWESNGQPENNYKTTPPVLDSDGSFFLYSKLTVDKSRWQQGNVFSCSVMHEALHNHYTQKSLSLSPGK
In assay [4], B4 yielded a koff of 0.00091 s⁻¹ and a kon of 702000 M⁻¹ s⁻¹. For the same molecule, the “Max MFI” value in assay [5] was 103000 MFI. In addition, the EC50 in assay [6] was determined as 0.02 µg/mL. In assay [7], this molecule showed a Kd of 1.3 nM. Further, in assay [8], the “IC50, inhibition of the catalytic function of recombinant human CD73 enzyme” value is 0.0456 µg/mL.

A word on the EC50: it is the concentration that produces a half-maximal response. As usually defined, the koff is a measure of how fast the partners let go of each other. As usually defined, the kon is the rate constant with which the complex forms. One may read the Kd as the concentration at which binding is half-saturated.
